Target: the molecule itself
Assay: SDS gel and Western blot, self-association (dimer band)

B1: secreted form of the factor with tags (94 AA+tags) expressed in E. coli (other)
chain: MEPLAVVDLRPQSSVKVEVHFQDKVEEMSIRLDQTVAELKKHLKTVVQLSTSNMLLFYLDQEAPFGPEEMKYSSRALHSYGIRDGDKIYVEPRMKDDDDKKGEFEAYVEQKLISEEDLNSAVDHHHHHH
notes: Expressed from pTrcHis2-TOPO in E. coli, purified on nickel columns; carries no lipid cofactor; runs at 16 kD with a 32 kD dimer band; also called free factor made in E. coli; E. coli expressed secreted form of the factor
B1: binds.
